In patent US20230190653A1, “METHOD FOR REDUCING OFF-TARGET UPTAKE OR ACCUMULATION OF AGENTS” (The Regents of the University of Colorado, A Body Corporate, priority 2021, published 2023):

Columns and labels:
[1] = Particle size measurement (Malvern Zetasizer / dynamic light scattering); assay type: physicochemical; conditions: approximately 150 kD
Description: Lipids were dissolved in chloroform and used to prepare liposomes comprised of sphingosine:cholesterol:DAPC at a mole ratio of 3:2:5 in water as previously described. Briefly, the lipid mixture was dried with nitrogen gas to achieve a thin film that was incubated under vacuum overnight before rehydration with distilled water and sonication to achieve clarity (1-2 min). Lactosylceramide or PEG-ceramide were included in the chloroform-lipid mixture and incorporated into liposomes at a 5% mole ratio as previously described. […] The diameters of these preparations were 237.9±7.5 (lactose) and 273.4±10.4 (PEG) nm as reported previously.
Sphingosine, cholesterol, 1,2-diarachidoyl-sn-glycero-3-phosphocholine (DAPC), and C16-PEG750-Ceramide were purchased from Avanti® Polar Lipids (Alabaster, Ala.) and used to prepare liposomes at a 3:2:4.5:0.5 mole ratio (respectively) as previously described. The liposomes preparations have an average diameter of 135 nm, a PDI of 0.137, and were prepared in 5% dextrose to adjust the tonicity of the injection solution. […] A Malvern Zetasizer Nano-ZS was used for all size measurements.
FITC-dextran was chosen for these studies since it is commonly used to quantify endothelial and epithelial cell barrier permeability.

[2] = Direct injection of IFN-γ into tumors, persistence of cytokine levels; assay type: in vivo; conditions: preliminary, data not shown
Source text: In contrast to inflammatory cytokines (e.g., TNF-α, IFN-γ, IFN-α, IFN-β) that increase vascular permeability, IFN-λ works specifically on the endothelial/epithelial cells to strengthen barrier integrity and prevent viral invasion. […] Ultimately, the lack of a tightening response in the tumor epithelium allows nanoparticles unaltered access to the tumor upon repeat administration.

CT26 tumor-bearing mice = test: Doxil accumulation in organs and tumor after IFN-λ pre-treatment; assay type: in vivo, Balb/c mice
Source text: Tumor Bearing Experiments: Prior to treatment, female immunocompetent Balb/c mice 6-10 weeks old were acquired from Jackson labs (Bar Harbor, Me.) and allowed to acclimate for one week. The mice were then inoculated in the right flank with approximately 1 million CT26 murine colon carcinoma cells (ATCC #CRL-2638). Tumors were allowed to grow for approximately 7 days or until tumor size reached at least 100 mm^3. […] Twenty-four hours after the dextran/Doxil® injections, animals were euthanized, and organs collected for dextran/drug accumulation analysis.
A standard curve of fluorescence for doxorubicin was determined through fluorescence measurements of a serially diluted stock solution of the Doxil® in 90% isopropyl alcohol (IPA) acidified with HCl to a final concentration of 0.075 M. Fluorescence measurements were conducted in a CellStar™ μClear™ 96-Well, Cell Culture-Treated, Flat-Bottom Microplate from Greiner Bio-One™ (Monroe, N.C.) at an excitation of 470 nm and emission of 595 nm using a Molecular Devices (San Jose, Calif.) SpectraMax® M5. […] The equation from the resulting standard curve of fluorescence from each specific organ was used to calculate the total amount of doxorubicin extracted from a corresponding Doxil® treated organ.
Organs collected from animals were immediately flash-frozen in liquid nitrogen and stored at −80° C. until analysis. […] Doxorubicin fluorescence of the extracted solution was then measured, and total doxorubicin accumulation was then calculated using the doxorubicin fluorescence standard curves described above. […]
To assess the effects of IFN-λ pre-treatment on Doxil® accumulation, mice were intravenously injected with either 100 μL of 1×PBS or 1 μg of IFN-λ in 100 μL 1×PBS. […] After an additional 24 hours following Doxil administration, tissues were harvested from experimental mice and the total Doxil accumulation in tissues was determined using the extraction method and standard curves described above. […]

[3] = tested on: IFNLR1 (interferon lambda receptor 1) gene expression; test: IFNLR1 gene expression by RT-qPCR in primary human liver epithelial cells; assay type: cell-based; conditions: 24 hours treatment
Description: (§1) Interferon Lambda Receptor 1 (IFNλR1) mRNA Expression Quantification by Reverse Transcription-Polymerase Chain Reaction (RT-qPCR): Human Lung Microvascular Endothelial Cells (540-05A) (HLMVECs) purchased from Sigma-Aldrich® (Burlington, Mass.) were cultured and left untreated or treated with 100 ng/mL recombinant human IL-29 (R&D Systems® 1598-IL-025) or 100 ng/mL IL-28A/B (R&D Systems® 8417-IL-025/5259-IL-025) for 24 hours. […] After 24 hours, using TaqMan™ Fast Advanced Cells-to-CT™ kit purchased from Invitrogen™ (Waltham, Mass.), cells were collected according to manufacturer recommendations and IFNλR1 expression was quantified. PCR assay ID Hs00417120_ml (ThermoFisher Scientific™, Agawam, M A) was used to quantify IFNλR1 gene expression and PCR assay ID Hs03928985_g1 (ThermoFisher Scientific™, Agawam, M A) was used to quantify reference gene RNA18S5 expression.
(§2) To test the hypothesis that microvascular endothelial cells and liver epithelial cells respond to IFN-λ, real-time quantitative polymerase chain reaction (RT-qPCR) analysis was used to determine Interferon Lambda Receptor 1 (IFN λR1) gene expression in primary Human Lung Microvascular Endothelial Cells and primary Human Liver Epithelial Cells (TABLES 4 and 5). […] However, liver epithelial cells do express IFN λR1 and show an increase in IFN λR1 gene expression in response to IFN-λ and lipoplex treatment.

IFNLR1 gene expression = IFNLR1 gene expression by RT-qPCR in primary human lung microvascular endothelial cells; assay type: cell-based; conditions: 24 hours treatment, 100 ng/mL
Description: as §1, §2

## FITC-dextran
[1]
  hydrodynamic diameter: approximately 100 nm

## IFN-γ: interferon gamma injected directly into tumors
[2]
  time cytokine levels are maintained in the tumor: at least 4 h

B1: IFN-λ: recombinant mouse IFN-λ2 (R&D Systems, 4635-ML-025/CF) (protein, UniProt Q4VK74 20-193, looked up)
Interferon lambda-2: DPVPRATRLPVEAKDCHIAQFKSLSPKELQAFKKAKDAIEKRLLEKDLRCSSHLFPRAWDLKQLQVQERPKALQAEVALTLKVWENMTDSALATILGQPLHTLSHIHSQLQTCTQLQATAEPRSPSRRLSRWLHRLQEAQSKETPGCLEASVTSNLFRLLTRDLKCVANGDQCV
CT26 tumor-bearing mice; 1 μg IFN-λ iv 24 h before 10 mg/kg Doxil
  Doxil accumulation in liver, spleen vs PBS pretreatment: reduction
CT26 tumor-bearing mice; 1 μg IFN-λ iv 24 h before 10 mg/kg Doxil, tissues 24 h later
  Doxil accumulation in the skin, kidney, lungs, and heart vs PBS pretreatment: significantly reduces
CT26 tumor-bearing mice; not statistically significant
  Doxil accumulation in tumor and plasma vs PBS pretreatment: increase

B2: IL29: recombinant human IL-29 (R&D Systems 1598-IL-025) (protein, UniProt Q8IU54 20-200, looked up)
Interferon lambda-1: GPVPTSKPTTTGKGCHIGRFKSLSPQELASFKKARDALEESLKLKNWSCSSPVFPGNWDLRLLQVRERPVALEAELALTLKVLEAAAGPALEDVLDQPLHTLHHILSQLQACIQPQPTAGPRPRGRLHHWLHRLQEAPKKESAGCLEASVTFNLFRLLTRDLKYVADGNLCLRTSTHPEST
[3]; vs untreated
  ΔΔCt: −1.092
[3]; 100 ng/mL cytokine or 1 μg/mL lipoplexes
  2^-ΔΔCt (Relative fold-change compared to untreated): 2.132
[3]; 100 ng/mL cytokine or 1 μg/mL lipoplexes, reference RNA18S5
  ΔCt mean: 19.476
IFNLR1 gene expression
  IFN λR1 expression in endothelial cells: no expression detected
  ΔCt mean: No Amplification
